In the RNAGym collection of RNA variant scans (doi:10.7554/elife.80360):

B1: Hairpin Ribozyme (parent)
chain: GUCCUCUUUCACGUGCGCGUGAAAGAGAGAAGUGAACCAGAGAAACACACGUUGUGGUAUAUUACCUGGUA

Variants of: B1
Test: self-cleavage, relative activity (ratio to wild type); higher = more cleavage; co-transcriptional

In order of rising self-cleavage:
1. A41C U62G  0
2. A41C A47G  0.0213
3. G40C A47U  0.0303
4. G40A G42A  0.0412
5. G40U U70G  0.0618
6. G40C U52G  0.064
7. G40C C50A  0.0683
8. G40C A61G  0.0698
9. G40C U58C  0.0707
10. G40U C48A  0.0709
11. A41C A43C  0.0734
12. G40C G54U  0.0743
13. G40U C50A  0.0746
14. A41G G42C  0.0762
15. G40A A49U  0.0787
16. G40U A59C  0.0879
17. A39U U62G  0.088
18. G40C A71U  0.09
19. G40C A59G  0.0907
20. G40U U63C  0.092
21. G40A G57A  0.0955
22. G40U G54U  0.096
23. G40A A43U  0.0963
24. G40C G68C  0.0987
25. G40U C65G  0.099
26. G40C A59C  0.0991
27. G40A G56U  0.0994
28. A41C A44C  0.0994
29. A41C U63G  0.102
30. G40U U63G  0.104
31. G40C C66A  0.105
32. A41G A49U  0.105
33. G40C G42C  0.107
34. G40C G56A  0.107
35. G40C U55A  0.107
36. G40A U67A  0.108
37. A41C U63A  0.108
38. A41C A45C  0.11
39. G40C G69A  0.111
40. G40U G56U  0.111
41. G40U U62G  0.111
42. G40U A59G  0.115
43. G40U G42U  0.116
44. A41G C46G  0.116
45. A41C C46G  0.117
46. G40A U67C  0.121
47. G40C G54A  0.124
48. G40U G57C  0.124
49. A41C U67G  0.124
50. G40C A64U  0.125
51. G40C C48G  0.127
52. G40C G51C  0.127
53. G40C G69U  0.128
54. G40C A41U  0.13
55. G40C G51U  0.131
56. G40C G68A  0.132
57. G40A U62G  0.133
58. G40U A43G  0.134
59. G40U G68A  0.134
60. G40U C46G  0.136
61. G40U C50G  0.136
62. G40C U52C  0.137
63. G40A A47G  0.138
64. G40C A43G  0.138
65. G40A A61G  0.139
66. G40A A64U  0.139
67. G40U G69C  0.14
68. A39U U63C  0.144
69. G40A G56C  0.146
70. G40U A43U  0.148
71. G40U U60C  0.148
72. G40A A45U  0.149
73. G40U U53G  0.151
74. G40U G57U  0.153
75. G40C C46A  0.155
76. A41C G56A  0.155
77. G40A U55A  0.157
78. G40C U67G  0.157
79. A41G A43G  0.157
80. G40A U70A  0.158
81. G40A A64C  0.16
82. G40C U58A  0.16
83. G40U G68C  0.163
84. G40A C66G  0.164
85. G40C U63C  0.164
86. G40U U55C  0.171
87. G40U U52G  0.172
88. A41G G57C  0.172
89. A41C A59U  0.173
90. G40U A49G  0.175
91. G40U C65U  0.177
92. G40A A44U  0.178
93. A41G A61G  0.179
94. G40A A43G  0.18
95. G40A A49G  0.182
96. G40A U70G  0.182
97. G40A G54U  0.183
98. G40U U58G  0.183
99. G40A C46A  0.184
100. G40C C66U  0.184
101. G40U A61G  0.186
102. A41G A47C  0.189
103. A41C U63C  0.192
104. G40A C50A  0.194
105. A41G G56U  0.195
106. G40A G69U  0.197
107. G40A A71U  0.198
108. A41C C48G  0.199
109. A41C A45U  0.202
110. G40U U52A  0.207
111. G40U A71G  0.209
112. G40A U52G  0.212
113. A41G A47U  0.212
114. G40A U60G  0.214
115. A41C C66A  0.214
116. A41C A49C  0.217
117. A41C G42U  0.231
118. G40U U55G  0.232
119. A41C A61U  0.234
120. G40A G51C  0.238
121. A41G A44G  0.249
122. G40U A41C  0.255
123. A41G C66G  0.255
124. A41C A45G  0.257
125. A41C A64U  0.267
126. G40A U60A  0.271
127. G40A A41C  0.274
128. A41G G42A  0.282
129. A41C C66G  0.292
130. G40A C65A  0.315
131. G40U A71C  0.319
132. A41C U62A  0.325
133. A39U U70G  0.333
134. G40U U52C  0.333
135. G40U U53C  0.344
136. A39U U67G  0.371
137. A39U U60C  0.378
138. A41C U55A  0.405
139. A41G G69A  0.411
140. G40U A41G  0.419
141. G40A C65U  0.435
142. A41G A59C  0.436
143. A41C G57U  0.502
144. A41G A49G  0.504
145. A41G G68C  0.508
146. G40C C66G  0.519
147. A41G G69C  0.534
148. A41G G51U  0.552
149. G40A A71C  0.574
150. A41G G54U  0.577
151. A41C C66U  0.614
152. A41C C50G  0.667
153. A41C G54C  0.676
154. A41G C65A  0.693
155. A41C C50U  0.713
156. A41C U53C  0.822
157. A41G U52C  0.827
158. G40A C66U  0.832
159. A41C U58A  1.07
160. A41G G51A  1.09
161. A41G U53A  1.1
162. A41C G51C  1.16
163. A41C U52A  1.17
164. A41C U60A  1.17
165. A41C U60C  1.27
166. A41C G51A  1.33
167. A41C G51U  1.48
